Literature values as cited in patent US6664231B1, “Anti-fungal peptides” (priority 1993, dated 2003).

Assays:
[1] = tested on: gram-negative bacteria; details: as low as; cited from earlier work
[2] = tested on: human, rabbit and sheep red blood cells and several human tumor cell lines; details: cited from earlier work
[3] = tested on: Candida albicans and Candida parapsilosis; details: 10^−6 M, pH 7.0 or 5.5; cited from earlier work
[4] = tested on: gram-positive organisms Staphylococcus aureus, Staphylococcus epidermidis, Streptococcus faecalis, Bacillus subtilis, Micrococcus lysodeikricus, Listeria …; details: 10^−6 M or 160 μg/ml, pH 7.0 or 5.5; cited from earlier work

B1: BPI: bactericidal/permeability-increasing protein isolated from the granules of mammalian polymorphonuclear leukocytes (protein, UniProt P17213 32-487, looked up)
Bactericidal …: VNPGVVVRISQKGLDYASQQGTAALQKELKRIKIPDYSDSFKIKHLGKGHYSFYSMDIREFQLPSSQISMVPNVGLKFSISNANIKISGKWKAQKRFLKMSGNFDLSIEGMSISADLKLGSNPTSGKPTITCSSCSSHINSVHVHISKSKVGWLIQLFHKKIESALRNKMNSQVCEKVTNSVSSELQPYFQTLPVMTKIDSVAGINYGLVAPPATTAETLDVQMKGEFYSENHHNPPPFAPPVMEFPAAHDRMVYLGLSDYFFNTAGLVYQEAGVLKMTLRDDMIPKESKFRLTTKFFGTFLPEVAKKFPNMKIQIHVSASTPPHLSVQPTGLTFYPAVDVQAFAVLPNSSLASLFLIGMHTTGSMEVSAESNRLVGELKLDRLLLELKHSNIGPFPVELLQDIMNYIVPILVLPRVNEKLQKGFPLPTPARVQLYNVVLQPHQNFLLFGADVVYK
concentration exhibiting anti-bacterial activity towards gram-negative bacteria [1]: 10^−8 to 10^−9 M
toxicity to higher eukaryotic cells [2]: non-toxic
toxic effect on fungi [3]: no toxic effect
toxic effect on gram-positive organisms [4]: no toxic effect
